In patent US20210253697A1 (Novo Nordisk, published 2021):

Target: T1, cynomolgus TREM-1 (cTREM-1 protein, SPR analyte of Examples 9 and 11) (cynomolgus monkey)
T1 construct: Soluble analyte; also called cyno TREM1
T1 chain: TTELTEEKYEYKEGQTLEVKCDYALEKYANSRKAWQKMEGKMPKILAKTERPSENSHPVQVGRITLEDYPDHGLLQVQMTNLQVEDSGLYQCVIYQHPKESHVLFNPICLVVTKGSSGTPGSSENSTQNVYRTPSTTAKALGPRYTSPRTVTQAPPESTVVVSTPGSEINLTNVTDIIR
Assay: SPR, mAb captured, cTREM-1 analyte
Description: Binding studies were performed on a ProteOn Analyzer (BioRad) that measures molecular interactions in real time through surface plasmon resonance. Experiments were run at 25° C. and the samples were stored at 15° C. in the sample compartment. The signal (RU, response units) reported by the ProteOn is directly correlated to the mass on the individual sensor chip surfaces in six parallel flow cells. Anti-human Fc monoclonal or anti-murine Fc polyclonal antibody from Biacore human or mouse Fc capture kits were immobilized in horizontal direction onto flow cells of a GLM sensor chip according to the manufacturer's instructions. The final immobilization level of capture antibody was approximately 2600-6000 RU in different experiments. […] The GLM surface was regenerated after each injection cycle of analyte via two 18 s injections of 10 mM Glycine, pH 1.7 and 50 mM NaOH at 100 μl/min. This regeneration step removed the anti-TREM-1 antibody and any bound TREM-1 protein from the immobilized capture antibody surface, and allowed for the subsequent binding of the next interaction sample pair.

Kd: 0.94 nM
B1: mAb 0121 (antibody, V domains shown)
VH: EVQLVESGGGLVQPGGSLKLSCAASGFTFSTYAMHWVRQASGKGLEWVGRIRTKSSNYATYYAASVKGRFTISRDDSKNTAYLQMNSLKTEDTAVYYCVRDMGQRRQFAYWGQGTLVTVSS
VL: DIVMTQSPDSLAVSLGERATINCRASESVDTFDYSFLHWYQQKPGQPPKLLIYRASNLESGVPDRFSGSGSGTDFTLTISSLQAEDVAVYYCQQSNEDPYTFGQGTKLEIK
notes: recombinant; also called 14F113/14F69 hz variant HC T93V; 14F113 hz variant HC T93V
